Paper PMC11574045, “A cofactor-induced repressive type of transcription factor condensation can be induced by synthetic peptides to suppress tumorigenesis” (The EMBO Journal, 2024)

Tested on: HEK293FT cells transfected with TF library
Experiment: Screening of TF condensates based on fluorescent puncta
Type: cell-based
Conditions: Figure 1B numerical data; TF library screen, one value per transcriptional factor
Procedure, shortened: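 TF plasmids (final 1.6 μg/ml) reverse-transfected with PEI (4.8 μg/ml) into HEK293FT cells; after 60 h, cells cultured ±glucose for 12 h, fixed in 4% PFA and immunostained for Flag or GAL4 tags with Alexa 488 secondaries. Puncta scored by automated imaging of 50 random fields per well.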

| Molecule | Z score of condensed fraction |
| --- | --- |
| BACH1 (protein, UniProt O14867 1-736, looked up) Transcription regulator …: MSLSENSVFAYESSVHSTNVLLSLNDQRKKDVLCDVTIFVEGQRFRAHRSVLAACSSYFHSRIVGQADGELNITLPEEVTVKGFEPLIQFAYTAKLILSKENVDEVCKCVEFLSVHNIEESCFQFLKFKFLDSTADQQECPRKKCFSSHCQKTDLKLSLLDQRDLETDEVEEFLENKNVQTPQCKLRRYQGNAKASPPLQDSASQTYESMCLEKDAALALPSLCPKYRKFQKAFGTDRVRTGESSVKDIHASVQPNERSENECLGGVPECRDLQVMLKCDESKLAMEPEETKKDPASQCPTEKSEVTPFPHNSSIDPHGLYSLSLLHTYDQYGDLNFAGMQNTTVLTEKPLSGTDVQEKTFGESQDLPLKSDLGTREDSSVASSDRSSVEREVAEHLAKGFWSDICSTDTPCQMQLSPAVAKDGSEQISQKRSECPWLGIRISESPEPGQRTFTTLSSVNCPFISTLSTEGCSSNLEIGNDDYVSEPQQEPCPYACVISLGDDSETDTEGDSESCSAREQECEVKLPFNAQRIISLSRNDFQSLLKMHKLTPEQLDCIHDIRRRSKNRIAAQRCRKRKLDCIQNLESEIEKLQSEKESLLKERDHILSTLGETKQNLTGLCQKVCKEAALSQEQIQILAKYSAADCPLSFLISEKDKSTPDGELALPSIFSLSDRPPAVLPPCARGNSEPGYARGQESQQMSTATSEQAGPAEQCRQSGGISDFCQQMTDKCTTDE | -0.5247 |
| POU3F3 (protein, UniProt P20264 1-500, looked up) POU domain, class 3, …: MATAASNPYLPGNSLLAAGSIVHSDAAGAGGGGGGGGGGGGGGAGGGGGGMQPGSAAVTSGAYRGDPSSVKMVQSDFMQGAMAASNGGHMLSHAHQWVTALPHAAAAAAAAAAAAVEASSPWSGSAVGMAGSPQQPPQPPPPPPQGPDVKGGAGRDDLHAGTALHHRGPPHLGPPPPPPHQGHPGGWGAAAAAAAAAAAAAAAAHLPSMAGGQQPPPQSLLYSQPGGFTVNGMLSAPPGPGGGGGGAGGGAQSLVHPGLVRGDTPELAEHHHHHHHHAHPHPPHPHHAQGPPHHGGGGGGAGPGLNSHDPHSDEDTPTSDDLEQFAKQFKQRRIKLGFTQADVGLALGTLYGNVFSQTTICRFEALQLSFKNMCKLKPLLNKWLEEADSSTGSPTSIDKIAAQGRKRKKRTSIEVSVKGALESHFLKCPKPSAQEITNLADSLQLEKEVVRVWFCNRRQKEKRMTPPGIQQQTPDDVYSQVGTVSADTPPPHHGLQTSVQ | 1.399 |
| PGR (protein, UniProt P06401 1-933, looked up) Progesterone receptor: MTELKAKGPRAPHVAGGPPSPEVGSPLLCRPAAGPFPGSQTSDTLPEVSAIPISLDGLLFPRPCQGQDPSDEKTQDQQSLSDVEGAYSRAEATRGAGGSSSSPPEKDSGLLDSVLDTLLAPSGPGQSQPSPPACEVTSSWCLFGPELPEDPPAAPATQRVLSPLMSRSGCKVGDSSGTAAAHKVLPRGLSPARQLLLPASESPHWSGAPVKPSPQAAAVEVEEEDGSESEESAGPLLKGKPRALGGAAAGGGAAAVPPGAAAGGVALVPKEDSRFSAPRVALVEQDAPMAPGRSPLATTVMDFIHVPILPLNHALLAARTRQLLEDESYDGGAGAASAFAPPRSSPCASSTPVAVGDFPDCAYPPDAEPKDDAYPLYSDFQPPALKIKEEEEGAEASARSPRSYLVAGANPAAFPDFPLGPPPPLPPRATPSRPGEAAVTAAPASASVSSASSSGSTLECILYKAEGAPPQQGPFAPPPCKAPGASGCLLPRDGLPSTSASAAAAGAAPALYPALGLNGLPQLGYQAAVLKEGLPQVYPPYLNYLRPDSEASQSPQYSFESLPQKICLICGDEASGCHYGVLTCGSCKVFFKRAMEGQHNYLCAGRNDCIVDKIRRKNCPACRLRKCCQAGMVLGGRKFKKFNKVRVVRALDAVALPQPVGVPNESQALSQRFTFSPGQDIQLIPPLINLLMSIEPDVIYAGHDNTKPDTSSSLLTSLNQLGERQLLSVVKWSKSLPGFRNLHIDDQITLIQYSWMSLMVFGLGWRSYKHVSGQMLYFAPDLILNEQRMKESSFYSLCLTMWQIPQEFVKLQVSQEEFLCMKVLLLLNTIPLEGLRSQTQFEEMRSSYIRELIKAIGLRQKGVVSSSQRFYQLTKLLDNLHDLVKQLHLYCLNTFIQSRALSVEFPEMMSEVIAAQLPKILAGMVKPLLFHKK | 1.815 |
| PIAS4 (protein, UniProt Q9JM05 2-507, looked up) E3 SUMO-protein ligase PIAS4: AAELVEAKNMVMSFRVSDLQMLLGFVGRSKSGLKHELVTRALQLVQFDCSPELFKKIKELYETRYAKKSAEPGPQAPRPLDPLALHSMPRTPLSGPTVDYPVLYGKYLNGLGRLPTKTLKPEVRLVKLPFFNMLDELLKPTELVPQSAEKLQESPCIFALTPRQVEMIRNSRELQPGVKAVQVVLRICYSDTSCPQEDQYPPNIAVKVNHSYCSVPGYYPSNKPGVEPKRPCRPINLTHLMYLSSATNRITVTWGNYGKSYSVALYLVRQLTSSDLLQRLKTIGVKHPELCKALVKEKLRLDPDSEIATTGVRVSLICPLVKMRLSVPCRAETCAHLQCFDAVFYLQMNEKKPTWMCPVCDKPAAYDQLIIDGLLSKILSECEGADEIEFLAEGSWRPIRAEKEPSCSPQGPILVLGTSDANGLAPASSTPGIGSGLSGPGSAGSGAGAAGSLENGKTGADVVDLTLDSSSSSEDEDEDEDDDEDEDEGPRPKRRCPFQKGLVPAC | -0.6594 |
| PIAS2 (protein, UniProt O75928 1-621, looked up) E3 SUMO-protein ligase PIAS2: MADFEELRNMVSSFRVSELQVLLGFAGRNKSGRKHDLLMRALHLLKSGCSPAVQIKIRELYRRRYPRTLEGLSDLSTIKSSVFSLDGGSSPVEPDLAVAGIHSLPSTSVTPHSPSSPVGSVLLQDTKPTFEMQQPSPPIPPVHPDVQLKNLPFYDVLDVLIKPTSLVQSSIQRFQEKFFIFALTPQQVREICISRDFLPGGRRDYTVQVQLRLCLAETSCPQEDNYPNSLCIKVNGKLFPLPGYAPPPKNGIEQKRPGRPLNITSLVRLSSAVPNQISISWASEIGKNYSMSVYLVRQLTSAMLLQRLKMKGIRNPDHSRALIKEKLTADPDSEIATTSLRVSLMCPLGKMRLTIPCRAVTCTHLQCFDAALYLQMNEKKPTWICPVCDKKAAYESLILDGLFMEILNDCSDVDEIKFQEDGSWCPMRPKKEAMKVSSQPCTKIESSSVLSKPCSVTVASEASKKKVDVIDLTIESSSDEEEDPPAKRKCIFMSETQSSPTKGVLMYQPSSVRVPSVTSVDPAAIPPSLTDYSVPFHHTPISSMSSDLPGLDFLSLIPVDPQYCPPMFLDSLTSPLTASSTSVTTTSSHESSTHVSSSSSRSETGVITSSGSNIPDIISLD | -0.03329 |
| POU2F2 (protein, UniProt P09086 1-479, looked up) POU domain, class 2, …: MVHSSMGAPEIRMSKPLEAEKQGLDSPSEHTDTERNGPDTNHQNPQNKTSPFSVSPTGPSTKIKAEDPSGDSAPAAPLPPQPAQPHLPQAQLMLTGSQLAGDIQQLLQLQQLVLVPGHHLQPPAQFLLPQAQQSQPGLLPTPNLFQLPQQTQGALLTSQPRAGLPTQAVTRPTLPDPHLSHPQPPKCLEPPSHPEEPSDLEELEQFARTFKQRRIKLGFTQGDVGLAMGKLYGNDFSQTTISRFEALNLSFKNMCKLKPLLEKWLNDAETMSVDSSLPSPNQLSSPSLGFDGLPGRRRKKRTSIETNVRFALEKSFLANQKPTSEEILLIAEQLHMEKEVIRVWFCNRRQKEKRINPCSAAPMLPSPGKPASYSPHMVTPQGGAGTLPLSQASSSLSTTVTTLSSAVGTLHPSRTAGGGGGGGGAAPPLNSIPSVTPPPPATTNSTNPSPQGSHSAIGLSGLNPSTGPGLWWNPAPYQP | -0.2237 |
| POU2AF1 (protein, UniProt Q16633 1-256, looked up) POU domain class …: MLWQKPTAPEQAPAPARPYQGVRVKEPVKELLRRKRGHASSGAAPAPTAVVLPHQPLATYTTVGPSCLDMEGSVSAVTEEAALCAGWLSQPTPATLQPLAPWTPYTEYVPHEAVSCPYSADMYVQPVCPSYTVVGPSSVLTYASPPLITNVTTRSSATPAVGPPLEGPEHQAPLTYFPWPQPLSTLPTSTLQYQPPAPALPGPQFVQLPISIPEPVLQDMEDPRRAASSLTIDKLLLEEEDSDAYALNHTLSVEGF | 2.502 |
| POU3F1 (protein, UniProt Q03052 1-451, looked up) POU domain, class 3, …: MATTAQYLPRGPGGGAGGTGPLMHPDAAAAAAAAAAAERLHAGAAYREVQKLMHHEWLGAGAGHPVGLAHPQWLPTGGGGGGDWAGGPHLEHGKAGGGGTGRADDGGGGGGFHARLVHQGAAHAGAAWAQGSTAHHLGPAMSPSPGASGGHQPQPLGLYAQAAYPGGGGGGLAGMLAAGGGGAGPGLHHALHEDGHEAQLEPSPPPHLGAHGHAHGHAHAGGLHAAAAHLHPGAGGGGSSVGEHSDEDAPSSDDLEQFAKQFKQRRIKLGFTQADVGLALGTLYGNVFSQTTICRFEALQLSFKNMCKLKPLLNKWLEETDSSSGSPTNLDKIAAQGRKRKKRTSIEVGVKGALESHFLKCPKPSAHEITGLADSLQLEKEVVRVWFCNRRQKEKRMTPAAGAGHPPMDDVYAPGELGPGGGGASPPSAPPPPPPAALHHHHHHTLPGSVQ | -0.6601 |
| POLR3C (protein, UniProt Q9BUI4 1-534, looked up) DNA-directed RNA polymerase …: MTQAEIKLCSLLLQEHFGEIVEKIGVHLIRTGSQPLRVIAHDTGTSLDQVKKALCVLVQHNLVSYQVHKRGVVEYEAQCSRVLRMLRYPRYIYTTKTLYSDTGELIVEELLLNGKLTMSAVVKKVADRLTETMEDGKTMDYAEVSNTFVRLADTHFVQRCPSVPTTENSDPGPPPPAPTLVINEKDMYLVPKLSLIGKGKRRRSSDEDAAGEPKAKRPKYTTDNKEPIPDDGIYWQANLDRFHQHFRDQAIVSAVANRMDQTSSEIVRTMLRMSEITTSSSAPFTQPLSSNEIFRSLPVGYNISKQVLDQYLTLLADDPLEFVGKSGDSGGGMYVINLHKALASLATATLESVVQERFGSRCARIFRLVLQKKHIEQKQVEDFAMIPAKEAKDMLYKMLSENFMSLQEIPKTPDHAPSRTFYLYTVNILSAARMLLHRCYKSIANLIERRQFETKENKRLLEKSQRVEAIIASMQATGAEEAQLQEIEEMITAPERQQLETLKRNVNKLDASEIQVDETIFLLESYIECTMKRQ | 2.0488 |
| POU3F2 (protein, UniProt P20265 1-443, looked up) POU domain, class 3, …: MATAASNHYSLLTSSASIVHAEPPGGMQQGAGGYREAQSLVQGDYGALQSNGHPLSHAHQWITALSHGGGGGGGGGGGGGGGGGGGGGDGSPWSTSPLGQPDIKPSVVVQQGGRGDELHGPGALQQQHQQQQQQQQQQQQQQQQQQQQQRPPHLVHHAANHHPGPGAWRSAAAAAHLPPSMGASNGGLLYSQPSFTVNGMLGAGGQPAGLHHHGLRDAHDEPHHADHHPHPHSHPHQQPPPPPPPQGPPGHPGAHHDPHSDEDTPTSDDLEQFAKQFKQRRIKLGFTQADVGLALGTLYGNVFSQTTICRFEALQLSFKNMCKLKPLLNKWLEEADSSSGSPTSIDKIAAQGRKRKKRTSIEVSVKGALESHFLKCPKPSAQEITSLADSLQLEKEVVRVWFCNRRQKEKRMTPPGGTLPGAEDVYGGSRDTPPHHGVQTPVQ | -0.6292 |
